# Test results from the DeepSol protein solubility set.
# Assay: soluble on expression in E. coli; label from the status in PepcDB or PDB records
row,Sequence,soluble on expression in E. coli
1,MGSDKIHHHHHHMEKSIQDTIHGVIKLEDWMVEIVDTPQFQRLRRINQLGFANLVYPGANHTRFEHSLGVMHVTRILQERMGFDDVVVAAALLHDVGHAPFSHGSERLLEKYASYNHETISKVVRGELKDVLKNLGFRISEIEAIVTGKRRSVVNGEIDADRMDYLVRDSHYTGVAYGVFDIYRLIDKIKFDGAVVIEQGGVKAAESLLISRFLMYPTVYFHHVCRIARKMYERAMERIIEAGFEAENLLEMDDVDAMMLLKEKERETYDRLNNRRLFKRAIYVSRRSLDFREVMRTSERRAEREVAEMAGVDERYVIVDIPPVEEMRESGVMVDTESGLKPLEEVSPLVKALKDAAVENWRLGVYTDRRFVDKVGKAAADYFGIEKVVQKSLDEIFPQ,not soluble
2,MAHHHHHHMLRIYDPKETVAFYEKNFGMINIHTYHFDEYNFSLYFLITPPYDEEERKKIPPPNTIESEQYLWNLKTVCLELTHNHNSTEKLSNGNNDNDRGFGHIAFNCQDVTQFCDYLFKEKKVNFHKLPHETKMKSIGFALDPNDYWIEIVKRSSEVKWKDKEGIANFSQTMIRVKNPEKSLYFYLHILGMKLVHIKHASDFSLYFLKSPYVEGNKGGDISTKEKPEGEQNLPPYNFEELKKAYQSDEDYENLKTSWEPVLELTHNHGTENDDQFAYHNGNTEPRGFGHIGFLVDDLANYCQELEKLGIPFKKKIHEGQMNNIAFVYDPDNYLVELIQRGTTFGRN,not soluble
3,MKNLEKCILCGSHNIVPHWKNVRSYNVSKCLDCSFLFLHEIIDDHELENYYSQSYFMASYAKTENNLIDAANNPKITAEAKEYANLIKLHHPEAHNVGEIGCSWGYLLYNLQNFGYSAKGFELSKTTAEMGSKQLGINITSGFFETQYNQFDVLILRHVLEHVPDPQDLLEKIYDSIKKDGLFILEGPNLDSISSRLFGKNVSWVSPPDHISFPNFISLIMACEKLGFTCIHKSSRRGRGISIFHQALLNSVGLMFGGKEKAKVNLGGINEKPNNQQLSSLKSAALKIVDFLDFLSSPMQPFLKQALLEEEMLIIFKKLEHHHHHH,not soluble
4,MRIRLFAFCLLLGGCQSQLPPLPDWQSPEGRDDPQTGRIVELRSGVTLSPQQLVARLAAAPRVIVGEKHDNPDHHAVELWLAQALGEYRAQGSLLLEMLDPGQQPRVDAVRAQLGNGKPVANLEEALDWQKGWDWTQYGPLVSWAVAQPAPLLAANLQRSEIMRIYRERPPLPGTASRRDSVRLPLLAQIRESHCGMLPDDQLPAMLAVQQQRDRRMAERLRDAPRPAMLVAGSFHARRDLGVPVHLRDLGAEKGTQVLMLVEAGQAVTTREADYAWYTPAQPDKDYCAEMKKARLEHHHHHH,not soluble
5,MKELHTSELVEVSGGKFHIFAQGGGNLGKKDMVAVGKIGASYSPNNSGVEFSVSKQFGYVQGLGVQFSKPTFGISKKW,not soluble
6,MGSDKIHHHHHHMHFDAETVTHRGGLSKLRSLTKVNPRLAPNLAKTMLGGPRDHAVVEAFNAHAADKGFEFTSTWASNNIPFVTPLLRDFAAKRPAGEAIRYMEIGAYEGRNLAFMDWLLPDRLAVTVIDPWFDEALNPEEKYHAVEPRFRRNMDKCGFKSLSTHKGFSTYVLPQMLERGEQFDLIYVDGSHTALAVLIDLCFCASLLSVGGMMVLDDYWHDISEIGGPGVKQAVDQFHAAFGRYFEIAAVYRQVALVKTSEIPR,not soluble
7,MKLSHDCIRDILLFSESLPYNEPAFGDKIFKSDLLKKYSSEEINYAVSKLGDDDAQLIKGYVKFASNKPYMTCISSLTFDGHKYLDNIRDPKIWKESKKISSKLASVSIDIMSEIAAKVITKTLGLD,not soluble
8,TDLVAVWDVALSDGVHKIEFEHGTTSGKRVVYVDGKEEIRKEWMFKLVGKETFYVGAAKTKATINIDAISGFAYEYTLEINGKSLKKYMEDRSKTTNTWVLHMDGENFRIVLEKDAMDVWCNGKKLETAGEFVDDGTETHFSIGNHDCYIKAVSSGKRKEGIIHTLIVD,not soluble
9,GMTKKTGFFKRLKALTLPQKQLFATALCQRMLPNYQLFSEVCEFGDPAVLSTALELLWQSLYDPKLKFNIDVHLQRLEDNTPEPADFEAYGVYPAMDAVVAISTLLGAIQGKIEEDIVNISKLSSSTVANYIEAISDVDLVDEALDDFVFAHEVMEEEKELQNSLLEIIEENPKITAELVKGLRKDIIETGVSNIGISVA,soluble
10,MGSDKIHHHHHHAPLPQAPIPAPSMSLPGFHAPPPSTSNGTVASGAVRTQPARMPFYVATKGKVTIYVLGTLHVGDPADYPANQPFRRPILAALAASPTLALELSPDDLLESQDDVSKYGVCNYACLPRLLPPPLWQKLANRLRGNPAALAGIRNMRPWLASLVVETYDSLSAGLQTEYGTEAQLQNVFLRKKGGKVVGLETLAEQMRAFTGLTLAQQREMLAQDMVQTPAQNAADVRALHRLWRIGDADAIAAWANAKTERLARARSIADSIDNKIVYERNRRFVARMTAIAAPNRPLFVAIGSLHLGGPKGVLELLRQQGYRVDAG,not soluble
11,MGSDKIHHHHHHVVNAIEVSDISKQFVLRHTRSIKEAVVWLAKGRKGDLSEKFHALKNVTLEVKTGETVALLGLNGSGKSTLLKHISGVMLPDSGTVRTRGRVAGLIEVGAGFHPDLSGRDNVYLNGAILGMTEQQVNDRFDDIVEFSETGQFIDTEVKFYSSGMYLRLAFSVAVHTDPEVFLIDEILAVGDEPFQRKCIDKIQELARNGKTLVVVSHDLDLVSRICARGILLEHGNVKFDGSIHDAVALLRA,not soluble
12,MQLVVARIGRAHGIKGEVTVEVRTDEPELRLGPGAVLATDPASTGPLTIESGRVHSGRLLLRFAGVHDRTGAEALRNTLLIADVDPDERPEDEDEYYDHQLIDLDVVTEDGTEVGRITEISHLPTQDLFVVERPDGSEVYVPFVSEIVTGIDLDAQRAVIDPPPGLIDDRAEIASARDAGAEDAGDEALEHHHHHH,soluble
13,MGSDKIHHHHHHMIRIENISKQNSHRLLFIEASAALNKGEKIGLVGPNGAGKTTLFRMITGEELPDEGQVATEKGVTIGYFNQDVGEMSGRSAVAEVMDGAGPVSTVAAELRELEGAMSDPDRMDEMDAIIERYGEVQARYEELDGYALEGRAREVLDGLSFSQEMMDGDVGKLSGGWKMRVALARILLMRPDVMLLDEPSNHLDLESLIWLESFLKNYDGALLMTSHDREFMNRIVTKIIEIDGGSLTSYSGDYGFYEGQRAQNEKQQQAQFERQQAMLAKEIKFIERFKARASHAAQVQSRVKKLDKIDRVEPPRRRQTVAFDFLPAPRSGDDVINIKNVHKAYGSRTIYQGLDFMVRRRERWCIMGINGAGKSTLLKLVAGTTEPDQGTVSIGASVKLGYFAQHAMDVLDGDSTVLQWLEESFPKAGQAPLRALAGCFGFSGDDVEKRCRVLSGGEKARLVMAAMLFDPPNLLVLDEPTNHLDLDTKEMLIKALSAYEGTMLFVSHDRHFLAALSNRVLELTPDGIHQYGGGYTEYVERTGQEAPGLHAA,not soluble
14,MKIVEVKHPLVKHKLGLMREQDISTKRFRELASEVGSLLTYEATADLETEKVTIEGWNGPVEIDQIKGKKITVVPILRAGLGMMDGVLENVPSARISVVGMYRNEETLEPVPYFQKLVSNIDERMALIVDPMLATGGSVIATIDLLKKAGCSSIKVLVLVAAPEGIAALEKAHPDVELYTASIDQGLNEHGYIIPGLGDAGDKIFGTK,soluble
15,MELYELAQAAGGGIDPDVFKILVDLLKLNVAPLAVFQMLKSMCAGQRLASEPQDPAAVSLPTSSVPETRGRDKGSAALGGVLALAERSNHEGSSQRMPRQPSATRLPKGGGPGKSPTQGST,soluble
16,MGYKTILAVVDNVSNTQKLGEFVVSLADQFSSHVIGLHMETLAAVPLVAPMEIPDPATVQALQDVAHKETTDVGTLFERTLSTNGISHEWRSFVTSVGYASASAIDSARCADLIVARQSSSSALSDSRSDIDGFLYESGRPVLLVPHVLTVAKPIKRVLIAWNGSREATRATFDALPFLKAADSVEIFSVDQSESETQSAGLAGAELAATLARHGVNVTVTSQEKIAGLSPQAAIENRLSDNSIDLLVMGAYGHSRWWELLFGGVTRTLLDSMTAMTLLSR,soluble
17,MVVTCPKCGAKNRLGTPPPGQVPVCGACKTPLPWVVEADEKGFAQEVAGAPLTLVDFFAPWCGPCRLVSPILEELARDHAGRLKVVKVNVDEHPGLAARYGVRSVPTLVLFRRGAPVATWVGASPRRVLEERLRPYLEGR,soluble
18,MIDDDGYRPNVGIVICNRQGQVMWARRFGQHSWQFPQGGINPGESAEQAMYRELFEEVGLSRKDVRILASTRNWLRYKLPKRLVRWDTKPVCIGQKQKWFLLQLVSGDAEINMQTSSTPEFDGWRWVSYWYPVRQVVSFKRDVYRRVMKEFASVVMSLQENTPK,soluble
19,MDANEKKEVIKKRFQEIAMSGGTCCSGGGCCGDSSSSDISRAIGYSEADIEAVPDANMGLGCGNPASIAELKPGDIVLDLGSGAGFDCFLAAQKVGNSGKVIGVDMTPEMVEKVQANARKYGYSNVEFRQGDIEALPVEDSSVDVIISNCVINLAPDKEKVFREAFRVLKLGGRLYISDLVLLDELPEDLKNDRDLLAGCVAGAVLKEEYLKLLKRAGFSVEILAEDPDISKSQYKGLPVESLKLKAWVLEHHHHHH,soluble
20,MSLVTNKLGRDIPQPYADQYGVFEGELANIKQYDESSRRIKPVKPGDSKLLGSVREAIEKTGLTDGMTISFHHHFREGDFIMNMVLEEIAKMGIKNLSIAPSSIANVHEPLIDHIKNGVVTNITSSGLRDKVGAAISEGLMENPVVIRSHGGRARAIASGDIHIDVAFLGAPSSDAYGNVNGTKGKATCGSLGYAMIDAKYADQVVILTDNLVPYPNTPISIPQTDVDYVVTVDAIGDPQGIAKGATRFTKNPKELLIAEYAAKVITNSPYFKEGFSFQTGTGGASLAVTRFMREAMIKENIKASFALGGITNAMVELLEEELVEKILDVQDFDHPSAVSLGKHAEHYEIDANMYASPLSKGAVINQLDTCILSALEVDTNFNVNVMTGSDGVIRGASGGHCDTAFAAKMSLVISPLIRGRIPTFVDEVNTVITPGTSVDVIVTEVGIAINPNRQDLVDHFKSLNVPQFSIEELKEKAYAIVGTPERIQYGDKVVALIEYRDGSLMDVVYNVEGHHHHHH,soluble
21,MGSDKIHHHHHHMDQARTTTVDHPDRETPFLLFAQHGWDDRSYPIQQMAQSIAPQYSQVYAPNLGRFRTWIAIEPLIQSVEAVVLEAIAQYPDRPLRFLGHSMGGLIWLEVLSRHREWWDRTHSLVLVGSPVSGSDVCRLLDPFGRLPSIAKDLGRNRRPLAEAIAAQIPTASIVSDLGDYSDGLVPVNSSEFERATLVTLKDISHARLKSHPQVADAIAQFWKQPSIAPRPRDRAGTLIAQLRSLNLTECNHRNFAKAAVLKSQPDGVKIWRWLNPLRVQHIFVSSPDPATGRDCCRYAAYTGWLDDAALSKFLEKL,not soluble
22,MGSDKIHHHHHHMNAIASRQRPLLPVREAVVTRVRGSAPTAVGASMCLLEDGSLLGTVGGGRMEYQVCQVLCSPRSEAPPALLSFTLGTADDQCCGGQVEICVLDVPLFFSELYQPGASRLYQRDSAGRLRLVAGMTRLGREIGSFDALTVLLRANAPGMDVEERHFALPAPHHQPLWIFGAGHVGRAIASMAHKLDFASSVFDQRPEWADPAAFPPEVTLVDTWTWADLQAPATDAMVLIMTYSHAMDYALLEHFIGEPLAYLGVIASRSKAARFSHALSRAGHDIPDYLHMPMGLPGMGKKPPEIAISVLAELLQLRHKKTDF,not soluble
